Laboratory results: US20070032439, “Tarp promoter and uses thereof” (published 2007)

B1: wild-type ARE[-186] TARP promoter oligo (dsDNA)
DNA 1: GCAAGGTGAGGTCAGTTCTTAAA
DNA 2: TTTAAGAACTGACCTCACCTTGC
B2: mutated ARE[-186] oligo (dsDNA)
DNA 1: GCAAGGTGTGGTCAACTATTAAA
DNA 2: TTTAATAGTTGACCACACCTTGC

Key:
[1] = molecular target: T1, Androgen receptor (AR), full-length (Homo sapiens, UniProt P10275 P10275:1-920); test: EMSA; 10 nM R1881, 30 mM KCl, 2 mM MgCl2, pH 7.5, poly(dI-dC); abolished by 100-fold unlabeled wild-type competitor; conditions: tags: none stated; cDNA from pSVAR0 in pBluescript II SK+, T7/wheat germ extract (Promega); chain copies: 2; label: 32P 5' end
From the text: (§1) Double-stranded oligonucleotides constituting either the wild-type ARE or a mutated version thereof at −186, relative to the TARP transcription initiation site, were 5′end labeled with […] using T4 polynucleotide kinase (Amersham Bioscience, Piscataway, N.J.). The wild-type oligonucleotide sequence was […] and includes the ARE[−186] sequence of the TARP promoter. The corresponding oligonucleotide sequence with the mutated version of the ARE[−186] was […]. Full-length human AR cDNA was subcloned from PSVAR0 (Brinkmann et al., J. Steroid Biochem., 34: 307-310, 1989) to pBluescript II SK+ (Stratagene). In vitro-translated human AR was produced by transcription-coupled translation by using T7 RNA polymerase and wheat germ extract (Promega). Translated AR was incubated with either wild-type ARE[−186] probe or mutated ARE[−186] probe in a buffer containing 20 mM HEPES (pH 7.5), 30 mM KCl, 2 mM MgCl₂, 1 mM EDTA, 1 mM dithioerythritol, 1 mM phenylmethylsulfonyl fluoride, 10 nM R1881, 15% glycerol, 1 μg poly(dI-dC)poly(dI-dC) and 1 μg BSA. Samples were resolved by electrophoresis on 5% TBE/polyacrylamide gels. The gels were dried and subjected to autoradiography.

[2] = molecular target: T1, Androgen receptor (AR), full-length; test: EMSA; 10 nM R1881, 30 mM KCl, 2 mM MgCl2, pH 7.5, poly(dI-dC); conditions: tags: none stated; cDNA from pSVAR0 in pBluescript II SK+, T7/wheat germ extract (Promega); chain copies: 2; label: 32P 5' end
From the text: as §1

T1 sequence (P10275 whole entry, one chain of several): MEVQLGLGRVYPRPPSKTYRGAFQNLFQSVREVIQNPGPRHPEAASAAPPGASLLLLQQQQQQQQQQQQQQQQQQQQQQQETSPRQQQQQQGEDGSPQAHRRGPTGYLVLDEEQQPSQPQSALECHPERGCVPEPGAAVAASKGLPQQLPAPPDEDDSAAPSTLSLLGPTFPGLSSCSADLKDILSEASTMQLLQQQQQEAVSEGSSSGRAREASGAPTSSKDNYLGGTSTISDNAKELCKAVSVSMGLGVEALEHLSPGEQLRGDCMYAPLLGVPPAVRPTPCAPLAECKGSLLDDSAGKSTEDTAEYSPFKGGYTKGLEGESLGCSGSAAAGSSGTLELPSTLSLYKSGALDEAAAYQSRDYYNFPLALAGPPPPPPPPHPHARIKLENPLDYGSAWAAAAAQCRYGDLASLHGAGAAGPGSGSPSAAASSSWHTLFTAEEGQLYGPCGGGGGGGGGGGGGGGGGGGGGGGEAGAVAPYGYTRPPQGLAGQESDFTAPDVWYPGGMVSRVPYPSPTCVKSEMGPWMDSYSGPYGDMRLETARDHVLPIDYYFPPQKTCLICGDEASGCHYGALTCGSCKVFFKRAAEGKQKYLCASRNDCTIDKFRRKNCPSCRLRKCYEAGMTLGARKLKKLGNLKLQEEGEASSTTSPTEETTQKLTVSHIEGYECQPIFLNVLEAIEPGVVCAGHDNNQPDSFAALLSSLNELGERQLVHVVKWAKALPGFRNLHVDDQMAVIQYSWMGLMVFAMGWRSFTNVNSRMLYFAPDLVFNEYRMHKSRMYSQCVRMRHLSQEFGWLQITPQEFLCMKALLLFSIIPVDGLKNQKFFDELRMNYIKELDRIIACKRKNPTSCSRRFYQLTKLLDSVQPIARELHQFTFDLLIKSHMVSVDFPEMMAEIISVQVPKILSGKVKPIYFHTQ

Binder	binding result [1]	binding result [2]
B1	binds	–
B2	–	no binding
